In this assay the target is human CD166 on human cells or tissue (human) (UniProt Q13740). Description: inhibition of adhesion of CD166-expressing HuT-78 cells to immobilized recombinant CD6.

pEC50: −log10 of the molar value.

human CD166 on human cells or tissue (human), sequence (Q13740 28-583): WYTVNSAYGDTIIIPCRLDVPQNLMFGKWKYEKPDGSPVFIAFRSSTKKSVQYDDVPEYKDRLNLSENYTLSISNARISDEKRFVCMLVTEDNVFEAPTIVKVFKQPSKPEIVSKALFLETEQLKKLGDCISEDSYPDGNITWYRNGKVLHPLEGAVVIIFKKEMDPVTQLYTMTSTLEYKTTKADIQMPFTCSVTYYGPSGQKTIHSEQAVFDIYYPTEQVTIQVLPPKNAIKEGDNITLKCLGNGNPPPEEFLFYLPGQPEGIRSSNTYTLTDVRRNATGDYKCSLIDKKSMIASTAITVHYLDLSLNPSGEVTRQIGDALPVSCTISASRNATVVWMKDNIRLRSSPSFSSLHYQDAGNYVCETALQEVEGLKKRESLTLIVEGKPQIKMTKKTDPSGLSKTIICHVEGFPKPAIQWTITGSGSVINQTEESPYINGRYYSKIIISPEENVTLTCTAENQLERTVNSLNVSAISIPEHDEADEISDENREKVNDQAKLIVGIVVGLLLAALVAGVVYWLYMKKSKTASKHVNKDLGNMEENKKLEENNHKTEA

On to MAB656 (antibody), for which the negative-log EC50 (pEC50) was 8.43.

As a reminder, the pEC50 is −log10 of the EC50, conventionally taken in molar units.

(Values after US20160355587A1.)
